In patent US20100247589A1:

B1: DenP13 (peptide)
peptide: QAAQVHMMQHSRPTT
B2: DenP1 (peptide)
peptide: NGNNHTDIPNRSSYTGGSFA
B3: Control (SEQ ID NO: 95) (peptide)
peptide: IPWWNIRAPLNAGGG
B4: DenP4 (peptide)
peptide: VEPATKNMREARSSTQMRRI
B5: DenP20 (peptide)
peptide: VNPNWVETQALHQPPGNT
B6: DenP9 (peptide)
peptide: HKNAIQPVNDATTLDTTM
B7: DenP23 (peptide)
peptide: HDPNHLTHQARTIYRNANHT
B8: DenP17 (peptide)
peptide: TTGSSSQADTSASMSIVPAH
B9: DenP19 (peptide)
peptide: TYQGVPSWPAVIDDAIRR
B10: DenP32 (peptide)
peptide: HKNENIMQYNVNDRWHITPA
B11: DenP29 (peptide)
peptide: QVPDYLSPTHQKKAFLEIPT
B12: DenP26 (peptide)
peptide: DTIHPNKMKSPSSPL
B13: DenP18 (peptide)
peptide: KAPIANMLQPHSYQYSVA
B14: DenP8 (peptide)
peptide: GMPTRYYHNTPPHLTPKF
B15: DenP25 (peptide)
peptide: ANELSTYAQTNPGSG
B16: DenP2 (peptide)
peptide: TMTNHVYNSYTEKHSSTHRS
B17: DenP14 (peptide)
peptide: SEARARTFNDHTTPMPII
B18: DenP5 (peptide)
peptide: YLLPKDQTTAPQVTPIVQHK
B19: DenP24 (peptide)
peptide: SNATMYNIQSHSHHQ
B20: DenP28 (peptide)
peptide: APPTYQTASYPHNLPSKRKM
B21: DenP7 (peptide)
peptide: EFPYYNDNPPNPERHTLR
B22: DenP21 (peptide)
peptide: DHNNRQHAVEVRENKTHTAR
B23: DenP22 (peptide)
peptide: IYPNESMSTSNVRGPYHP
B24: DenP11 (peptide)
peptide: DLGTFPNRTLKMAAH
B25: DenP15 (peptide)
peptide: ELDHDSRHYMNGLQRKVT
B26: DenP16 (peptide)
peptide: GPQHVLMQDTHQGYAFDN
B27: DenP30 (peptide)
peptide: TNDLHANPFTGTYIAPDPTS
B28: DenP10 (peptide)
peptide: AVVPADLNDHANHLS
B29: DenP12 (peptide)
peptide: FDGIGLGTATRHQNR
B30: Pell 13 (peptide)
peptide: NNTWPEGAGHTMPSTNIRQA
B31: Pell 6 (peptide)
peptide: DLCSSPSTWGSCIR
B32: Pell 19 (peptide)
peptide: TPCATYPHFSGCRA
B33: Pell 18 (peptide)
peptide: TPCAPASFNPHCSR
B34: Pell 20 (peptide)
peptide: WCTDFCTRSTPTSTSRSTTS
B35: Pell 11 (peptide)
peptide: NGPEVRQIPANFEKL
B36: Pell 17 (peptide)
peptide: QHCITERLHPPCTK
B37: Pell 3 (peptide)
peptide: DECMEPLNAAHCWR
B38: Pell 9 (peptide)
peptide: GNTDTTPPNAVMEPTVQHKW
B39: Pell 12 (peptide)
peptide: NNTSADNPPETDSKHHLSMS
B40: Pell 5 (peptide)
peptide: DLCSMQMMNTGCHY
B41: Pell 2 (peptide)
peptide: ASVSNYPPIHHLATSNTTVN
B42: Pell 1 (peptide)
peptide: AHPESLGIKYALDGNSDPHA
B43: Pell 14 (peptide)
peptide: NPTATPHMKDPMHSNAHSSA
B44: Pell 10 (peptide)
peptide: NGPDMVQSVGKHKNS
B45: Pell 15 (peptide)
peptide: NPTDHIPANSTNSRVSKGNT
B46: Pell 8 (peptide)
peptide: EPTHPTMRAQMHQSLRSSSP
B47: Pell 4 (peptide)
peptide: DECMHGSDVEFCTS
B48: Pell 7 (peptide)
peptide: DPNESNYENATTVSQPTRHL
B49: Pell 16 (peptide)
peptide: NPTDSTHMMHARNHE

Target: tooth pellicle (thin film derived from salivary glycoproteins, formed in a human mouth) (human)
Test: phage ELISA on pellicle-coated bovine enamel, anti-M13-HRP, normalized to internal control

Row | O.D.450 (normalized) | Binder
1 | 0.845 | B1
2 | 1 | B2
3 | 1 | B3
4 | 1.42 | B4
5 | 1.3 | B5
6 | 1.36 | B6
7 | 1.24 | B7
8 | 0.971 | B8
9 | 1.05 | B9
10 | 1.44 | B10
11 | 0.976 | B11
12 | 1.04 | B12
13 | 1.14 | B13
14 | 1.18 | B14
15 | 0.909 | B15
16 | 1.95 | B16
17 | 2.5 | B17
18 | 1.09 | B18
19 | 0.979 | B19
20 | 1.2 | B20
21 | 1.5 | B21
22 | 0.728 | B22
23 | 1.42 | B23
24 | 1.66 | B24
25 | 1.11 | B25
26 | 2.19 | B26
27 | 1.08 | B27
28 | 1.62 | B28
29 | 2.08 | B29

Target: tooth pellicle (thin film derived from salivary glycoproteins, formed in a human mouth) (human)
Test: phage ELISA on pellicle-coated HAP disks, anti-M13-HRP; no-phage control 0.218

Row | O.D.450 | Binder
30 | 0.598 | B30
31 | 0.735 | B31
32 | 0.731 | B32
33 | 0.416 | B33
34 | 0.715 | B34
35 | 0.607 | B35
36 | 0.614 | B36
37 | 0.49 | B37
38 | 0.755 | B38
39 | 0.521 | B39
40 | 0.83 | B40
41 | 0.75 | B41
42 | 0.739 | B42
43 | 0.7 | B43
44 | 0.729 | B44
45 | 0.567 | B45
46 | 0.712 | B46
47 | 0.664 | B47
48 | 0.831 | B48
49 | 0.578 | B49
